Data on one molecule can be found in paper PMC11375530, “The 8‐oxoguanine DNA glycosylase‐synaptotagmin 7 pathway increases extracellular vesicle release and promotes tumour metastasis during oxidative stress”.

The data set has as its target OGG1 (8-oxoguanine DNA glycosylase) (UniProt O15527 1-345). Kind of data set: EMSA; EMSA: DNA-binding buffer (composition not given), 10 min on ice then 10 min at 37 C, 7% native PAGE in 1x TBE; pull-down: 4 C, 12 h, 1 mM PMSF, PBS washes. The conditions noted are these: protein: commercial; label: 5'-FAM on strand 2; blunt.

OGG1 (8-oxoguanine DNA glycosylase), sequence (O15527 whole entry): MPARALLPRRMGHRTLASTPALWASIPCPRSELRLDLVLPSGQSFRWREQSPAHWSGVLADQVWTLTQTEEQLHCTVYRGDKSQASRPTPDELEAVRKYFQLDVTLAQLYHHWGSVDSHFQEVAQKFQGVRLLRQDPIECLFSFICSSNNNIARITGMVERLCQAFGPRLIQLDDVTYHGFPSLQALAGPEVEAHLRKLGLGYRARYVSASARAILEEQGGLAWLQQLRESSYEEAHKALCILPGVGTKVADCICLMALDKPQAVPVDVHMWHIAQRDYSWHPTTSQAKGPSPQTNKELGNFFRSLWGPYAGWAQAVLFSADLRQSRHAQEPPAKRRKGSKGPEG

B1: 8-oxoG-SYT7 (FAM) (dsDNA)
DNA 1: CGGGCGGGCGGGAGGGCTGGCGGGCGGCCCCC
DNA 2: GGGGGCCGCCCGCCAGCCCTCCCGCCCGCCCG
modifications: 8-oxoG at position 12 of strand 1 (printed ...CGGoGAGGG...)
With B1, the binding result is “binds”.
